Experimental data reported in US20040136985A1, “Methods of modifying behavior of CD9-expressing cells” (priority 2002, published 2004).
Values joined by “and” are separate entries in the source; they are usually repeats but may differ in a detail not shown here. Identical values can stand only once.

Legend:
[1] = molecular target: hamster integrin subunit β1 on CHO cells (hamster); assay: flow cytometry, MOCK-CHO-K1 cells
[2] = molecular target: hamster integrin subunit β1 on CHO cells (hamster); assay: flow cytometry, CD9-CHO-K1 cells
[3] = molecular target: hamster integrin subunit β1 on CHO cells (hamster); assay: flow cytometry, MOCK-CHO-B2 cells
[4] = molecular target: hamster integrin subunit β1 on CHO cells (hamster); assay: flow cytometry, CD9-CHO-B2 cells
[5] = molecular target: hamster integrin α5β1 on CHO cells (hamster); assay: flow cytometry, MOCK-CHO-K1 cells
[6] = molecular target: hamster integrin α5β1 on CHO cells (hamster); assay: flow cytometry, CD9-CHO-K1 cells
His6-rCD9 (human) [7] = molecular target: His6-rCD9 (human) (UniProt P21926); assay: ELISA, absolute values, FN on immobilized His6-rCD9
[8] = molecular target: purified platelet CD9 (human) (UniProt P21926); assay: ELISA, FN titrated on immobilized platelet CD9, 2.5 mM CaCl2
peptide 5 (human) = assay: ELISA, FN 75 µg/ml on immobilized peptide (10 µM coat)
peptide 6 (human) = assay: as above
His6-rCD9 (human) [9] = molecular target: His6-rCD9 (human) (UniProt P21926); assay: ELISA, FN titrated on immobilized His6-rCD9, 2.5 mM Ca2+

Chain of human plasma fibronectin, P02751 32-2296 (ligand) (P02751 other isoform, or with tags, fused parts or gaps limits assumed): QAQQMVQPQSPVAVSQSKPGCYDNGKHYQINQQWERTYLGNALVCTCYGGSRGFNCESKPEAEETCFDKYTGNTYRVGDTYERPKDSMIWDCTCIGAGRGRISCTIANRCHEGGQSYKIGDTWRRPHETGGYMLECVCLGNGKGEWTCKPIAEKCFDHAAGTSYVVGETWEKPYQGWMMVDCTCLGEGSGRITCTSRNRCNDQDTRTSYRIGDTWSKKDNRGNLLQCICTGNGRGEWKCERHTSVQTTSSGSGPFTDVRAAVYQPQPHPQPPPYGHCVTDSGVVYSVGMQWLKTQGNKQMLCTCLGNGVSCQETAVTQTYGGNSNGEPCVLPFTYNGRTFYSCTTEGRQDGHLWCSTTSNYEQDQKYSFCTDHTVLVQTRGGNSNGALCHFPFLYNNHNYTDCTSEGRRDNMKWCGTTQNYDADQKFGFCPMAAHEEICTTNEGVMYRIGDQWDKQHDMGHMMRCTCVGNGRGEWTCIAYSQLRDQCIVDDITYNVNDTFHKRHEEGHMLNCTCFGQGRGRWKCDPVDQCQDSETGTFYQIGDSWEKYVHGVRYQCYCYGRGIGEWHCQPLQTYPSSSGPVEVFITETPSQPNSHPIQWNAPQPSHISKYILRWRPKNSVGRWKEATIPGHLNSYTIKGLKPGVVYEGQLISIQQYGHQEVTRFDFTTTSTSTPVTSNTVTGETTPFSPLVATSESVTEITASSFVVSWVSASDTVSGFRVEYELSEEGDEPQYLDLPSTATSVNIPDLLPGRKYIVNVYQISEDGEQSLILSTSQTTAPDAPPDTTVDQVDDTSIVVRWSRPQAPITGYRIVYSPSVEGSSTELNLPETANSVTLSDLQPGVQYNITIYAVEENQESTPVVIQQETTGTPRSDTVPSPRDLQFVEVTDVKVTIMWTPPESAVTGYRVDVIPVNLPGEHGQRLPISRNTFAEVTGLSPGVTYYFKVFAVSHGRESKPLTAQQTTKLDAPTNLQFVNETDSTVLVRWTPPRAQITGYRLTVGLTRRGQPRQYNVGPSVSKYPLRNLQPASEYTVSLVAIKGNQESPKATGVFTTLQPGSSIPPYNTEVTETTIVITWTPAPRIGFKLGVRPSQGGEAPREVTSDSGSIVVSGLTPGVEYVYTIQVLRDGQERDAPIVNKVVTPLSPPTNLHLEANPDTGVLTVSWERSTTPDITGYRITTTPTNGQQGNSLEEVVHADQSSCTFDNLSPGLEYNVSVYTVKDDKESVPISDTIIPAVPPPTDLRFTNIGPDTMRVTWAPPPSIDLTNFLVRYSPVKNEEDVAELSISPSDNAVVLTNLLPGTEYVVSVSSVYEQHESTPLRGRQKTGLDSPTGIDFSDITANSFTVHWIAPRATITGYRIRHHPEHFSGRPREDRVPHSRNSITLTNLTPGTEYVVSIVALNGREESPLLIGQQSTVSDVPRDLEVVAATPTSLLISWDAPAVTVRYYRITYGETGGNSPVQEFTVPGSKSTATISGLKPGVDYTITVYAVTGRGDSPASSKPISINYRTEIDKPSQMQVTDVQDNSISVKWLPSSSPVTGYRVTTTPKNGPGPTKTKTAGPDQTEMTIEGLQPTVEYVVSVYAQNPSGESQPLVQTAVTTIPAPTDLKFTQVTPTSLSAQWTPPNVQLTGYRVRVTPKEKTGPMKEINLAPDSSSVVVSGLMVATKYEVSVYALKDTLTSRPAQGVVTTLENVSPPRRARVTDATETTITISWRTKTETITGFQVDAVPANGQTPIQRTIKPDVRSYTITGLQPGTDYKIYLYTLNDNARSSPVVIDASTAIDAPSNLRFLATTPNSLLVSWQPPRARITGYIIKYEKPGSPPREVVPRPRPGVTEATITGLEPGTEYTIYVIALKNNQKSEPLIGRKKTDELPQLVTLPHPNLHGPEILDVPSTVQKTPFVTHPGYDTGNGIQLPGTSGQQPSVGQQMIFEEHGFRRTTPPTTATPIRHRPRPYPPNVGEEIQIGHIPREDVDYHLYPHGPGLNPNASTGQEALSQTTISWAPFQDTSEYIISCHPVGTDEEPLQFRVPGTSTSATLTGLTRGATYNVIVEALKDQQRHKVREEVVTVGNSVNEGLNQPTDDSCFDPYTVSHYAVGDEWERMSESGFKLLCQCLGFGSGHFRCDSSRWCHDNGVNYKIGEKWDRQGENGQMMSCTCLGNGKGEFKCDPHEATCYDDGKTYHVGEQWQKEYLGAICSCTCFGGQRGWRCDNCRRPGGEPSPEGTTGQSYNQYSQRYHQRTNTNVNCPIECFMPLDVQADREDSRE
Chain of purified platelet CD9 (human) (P21926 2-228 limits assumed): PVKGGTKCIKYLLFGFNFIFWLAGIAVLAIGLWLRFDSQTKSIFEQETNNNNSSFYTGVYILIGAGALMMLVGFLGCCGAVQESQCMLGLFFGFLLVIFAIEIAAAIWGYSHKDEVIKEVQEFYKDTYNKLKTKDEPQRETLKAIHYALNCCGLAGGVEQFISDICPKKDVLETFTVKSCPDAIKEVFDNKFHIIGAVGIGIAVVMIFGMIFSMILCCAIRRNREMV
Chain of His6-rCD9 (human) (P21926 whole entry): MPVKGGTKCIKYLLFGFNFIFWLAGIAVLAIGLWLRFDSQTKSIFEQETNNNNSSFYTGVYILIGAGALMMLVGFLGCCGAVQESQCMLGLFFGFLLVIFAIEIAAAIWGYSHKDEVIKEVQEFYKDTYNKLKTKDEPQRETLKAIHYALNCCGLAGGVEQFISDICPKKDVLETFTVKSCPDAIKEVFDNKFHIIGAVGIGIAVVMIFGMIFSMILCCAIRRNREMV
Chain of peptide 6 (human) (chain, as listed by the source): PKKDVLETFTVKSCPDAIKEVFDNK
Chain of peptide 5 (human) (chain, as listed by the source): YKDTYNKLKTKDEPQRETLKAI

Substance: antibody 7E2
- % positive [1]: 100%
- Fold-increase (over isotype control) (fold MFI over isotype control) [1]: 7
- % positive [2]: 97%
- Fold-increase (over isotype control) (fold MFI over isotype control) [2]: 6
- % positive [3]: 100%
- Fold-increase (over isotype control) (fold MFI over isotype control) [3]: 0
- % positive [4]: 100%
- Fold-increase (over isotype control) (fold MFI over isotype control) [4]: 6

Substance: antibody PB1
- % positive [5]: 100%
- Fold-increase (over isotype control) (fold MFI over isotype control) [5]: 4
- % positive [6]: 98%
- Fold-increase (over isotype control) (fold MFI over isotype control) [6]: 4

Substance: human plasma fibronectin, P02751 32-2296 (ligand)
- ELISA binding against purified CD9 (% lower than purified CD9) (His6-rCD9 (human) [7]): 40
- EC50 [8]: 35.6 µg/mL and 81 nM
- binding relative to intact platelet purified CD9 (% of binding to platelet CD9) (peptide 5 (human)): 19
- binding relative to intact platelet purified CD9 (% of binding to platelet CD9) (peptide 6 (human)): 65
- EC50 (His6-rCD9 (human) [9]): 120 nM
